Columns and labels:
Experiment in all cases: pull-down; GST pull-down with purified GST or GST-p37 as bait, p97 variants and SPI or SPI variant, in the presence of ATP; Western blot
Conditions in all cases: both partners purified
[1] = biological target: T1, His-tagged p97 (from bacteria), wild type (human, UniProt P55072 2-806)
T1 construct: p97 (VCP), human; Wild-type p97 of the GST pull-down assays; also called VCP; source: generated in bacteria, purified

His-tagged p97 Y143A = biological target: T2, His-tagged p97 Y143A (human, UniProt P55072 2-806, Y143A)
T2 construct: p97 (VCP), human, point mutation in the N-domain groove; source: generated in bacteria, purified
T2 sequence (P55072 2-806 Y143A): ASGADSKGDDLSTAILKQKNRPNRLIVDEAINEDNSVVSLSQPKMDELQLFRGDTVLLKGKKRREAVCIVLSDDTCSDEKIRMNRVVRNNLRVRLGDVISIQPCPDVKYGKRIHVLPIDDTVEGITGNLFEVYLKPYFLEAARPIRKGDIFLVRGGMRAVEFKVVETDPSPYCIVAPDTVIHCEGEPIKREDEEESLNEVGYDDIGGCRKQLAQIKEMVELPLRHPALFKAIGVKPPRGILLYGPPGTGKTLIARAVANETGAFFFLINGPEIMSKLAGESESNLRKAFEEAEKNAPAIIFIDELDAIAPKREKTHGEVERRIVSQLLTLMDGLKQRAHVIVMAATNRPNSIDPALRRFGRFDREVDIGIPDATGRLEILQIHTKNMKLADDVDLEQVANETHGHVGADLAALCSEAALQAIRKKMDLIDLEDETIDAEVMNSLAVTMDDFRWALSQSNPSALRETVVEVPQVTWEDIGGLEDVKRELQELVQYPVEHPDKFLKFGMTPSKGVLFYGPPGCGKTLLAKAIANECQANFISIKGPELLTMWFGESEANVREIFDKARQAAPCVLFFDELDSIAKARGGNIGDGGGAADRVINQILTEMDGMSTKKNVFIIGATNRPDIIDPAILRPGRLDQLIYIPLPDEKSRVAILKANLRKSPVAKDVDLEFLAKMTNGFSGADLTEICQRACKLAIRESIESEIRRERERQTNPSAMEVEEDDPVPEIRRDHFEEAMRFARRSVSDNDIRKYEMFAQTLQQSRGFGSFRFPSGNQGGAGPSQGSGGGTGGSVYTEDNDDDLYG

His-tagged p97 G54K = biological target: T3, His-tagged p97 G54K (human, UniProt P55072 2-806, G54K)
T3 construct: p97 (VCP), human, point mutation in the N-domain groove; source: generated in bacteria, purified
T3 sequence (P55072 2-806 G54K): as the sequence (P55072 2-806 Y143A) above, with G53K, A142Y counted along it

Measured: binding result

T1 sequence (P55072 2-806): as the sequence (P55072 2-806 Y143A) above, with A142Y counted along it

B1: GST-p37 (natural protein, human, UniProt Q14CS0 1-331, looked up)
chain: MAEGGGPEPGEQERRSSGPRPPSARDLQLALAELYEDEVKCKSSKSNRPKATVFKSPRTPPQRFYSSEHEYSGLNIVRPSTGKIVNELFKEAREHGAVPLNEATRASGDDKSKSFTGGGYRLGSSFCKRSEYIYGENQLQDVQILLKLWSNGFSLDDGELRPYNEPTNAQFLESVKRGEIPLELQRLVHGGQVNLDMEDHQDQEYIKPRLRFKAFSGEGQKLGSLTPEIVSTPSSPEEEDKSILNAVVLIDDSVPTTKIQIRLADGSRLIQRFNSTHRILDVRNFIVQSRPEFAALDFILVTSFPNKELTDESLTLLEADILNTVLLQQLK
notes: Bait of the GST pull-down assays; source: generated in bacteria, purified
binds: all assays above

Source: article PMC10350818 (The EMBO Journal, 2023)
